± gives the standard deviation of the averaged measurements.
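Also: ATP exposure 15 min at 22 °C before imaging.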

The data set has as its system ATP. In words: switch fluorescence ratio, 500 uM ATP over buffer (Cy3 cluster intensity, sum of 5 cycles each) (fold (ratio)); higher = stronger signal-on switching upon ATP binding; sequences stand for … in TCGTCGGCAGCGTCAGATGTGTATAAGAGACAGTTTTTTTTTTTTTTTTTTTTTTTTT…TC. As to conditions: aptamer strand: ATP DNA aptamer (quencher-CACCTGGGGGAGTATTGCGGAGGAAGG + anchor), 100 nM annealed; ATP concentration: 500 uM. Put shortly:
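Per cluster, summed Cy3 intensity from the target cycles was divided by that from the buffer cycles to give the fluorescence ratio, then averaged per switch-domain sequence. Clusters outside 100-1000 RFU were excluded. The Cy3-labelled switching-strand clusters, on a modified Illumina MiSeq flow-cell, were annealed to 100 nM quencher-labelled ATP aptamer and imaged in selection buffer, then after 15 min with 500 uM ATP at 22 °C, for five cycles with NaOH stripping and re-annealing between them.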
Consider GTTGTAGGTT, for which the switch fluorescence ratio was determined as 0.966 ± 0.023.

On to TCAAGTGGCC, for which the switch fluorescence ratio was 1.02 ± 0.037. In the case of TGGGGGCCAT it was 0.999 ± 0.014; in that of CTCGGTTGGT, 1.006 ± 0.0083; in that of TCCTAGTCAT, 1.05 ± 0.036. For the sequence TGCCGGCTCG, the switch fluorescence ratio was 1.01 ± 0.012. In the case of AGGGGCACGA it was 1.03 ± 0.024; in that of AGGTGAATGG, 1.02 ± 0.03; in that of ACCCGAGTTT, 1 ± 0.018. In the case of TGGACTTAGG it was 0.987 ± 0.03; in that of AGCTGGCCCT, 1 ± 0.013; in that of TAATGGTTTT, 1.02 ± 0.025.

Turning to CTAACATGTG, the switch fluorescence ratio is 0.998 ± 0.03.

In the case of TTTCTGTAAT, the switch fluorescence ratio came to 1.05 ± 0.03. In the case of TGGCTGTTTT it was 1.04 ± 0.042.

As for ATTGTATGGA, the switch fluorescence ratio came out at 1 ± 0.011. In the case of TGAGGAATTC it was 1 ± 0.017; in that of GGTTCAGGTG, 3.38 ± 0.34; in that of GTGTTATTAG, 1.005 ± 0.007.

As to AGGGTTATTG, the switch fluorescence ratio came to 1.01 ± 0.047. In the case of TTGTGGATTA it was 1 ± 0.027; in that of AGCTTGGGTC, 0.994 ± 0.019. In the case of ACGTTTTAA it was 0.9999 ± 0.0084. Consider GAGGTTAGGT, for which the switch fluorescence ratio is 0.981 ± 0.01. With TGCCATAATG, the switch fluorescence ratio was found to be 1.02 ± 0.0057. In the case of TTAAATTGGG it was 1.01 ± 0.018. In the case of TAGGGGCTTT it was 1.04 ± 0.062. In the case of CGGAGGCGGT it was 1.02 ± 0.047. For the sequence GGGGGTTGGC, the switch fluorescence ratio turned out to be 0.966 ± 0.047. For AACATTCGTT, the switch fluorescence ratio was found to be 1.034 ± 0.0042. In the case of TTATAATTTC it was 1.009 ± 0.0023.

Take GCGGGGTTTC: the switch fluorescence ratio amounted to 1.03 ± 0.059. In the case of GTTCCCAGGA it was 1.09 ± 0.02; in that of AGTTGGTGTT, 0.958 ± 0.026; in that of GGTTCAGCGG, 0.959 ± 0.035. In the case of TTTCAAGTGC it was 1.03 ± 0.064; in that of TTTCAATCTT, 1.36 ± 0.62. For the sequence TTTGATGTAA, the switch fluorescence ratio is 1.01 ± 0.026. For the sequence GGTTTTCCAG, the switch fluorescence ratio stood at 0.946 ± 0.063.

As to ATCTAGGTAT, the switch fluorescence ratio was found to be 1 ± 0.029. Take GGTGATATAG: the switch fluorescence ratio came to 0.984 ± 0.021. In the case of CTAGATGGGT it was 1.01 ± 0.046; in that of CGGTTATCCT, 1.04 ± 0.032.

Turning to TTGGGAAGTT, the switch fluorescence ratio was 1.02 ± 0.031. In the case of TTTCAGGGGG it was 1.05 ± 0.091.

For the sequence GAGGACTCGT, the switch fluorescence ratio stood at 1.01 ± 0.016.

For TTTTCGTTGT, the switch fluorescence ratio was 0.996 ± 0.018. In the case of AGAGAATGG it was 0.951 ± 0.023; in that of GGGGGAGCAC, 0.997 ± 0.017; in that of TTATAAGTTT, 1.03 ± 0.078.

Consider AAGGGGGGGC, for which the switch fluorescence ratio was 0.998 ± 0.062. In the case of GTTTGGGGGA it was 0.9909 ± 0.0052; in that of AGTGTGATAG, 0.995 ± 0.034. On to GGGTATGGCT, for which the switch fluorescence ratio was 1.02 ± 0.018.

As to GTTATAGCTT, the switch fluorescence ratio came to 1.018 ± 0.0029. In the case of CTAGGGTGGA it was 1.05 ± 0.023. Consider GTTAGTAGAT, for which the switch fluorescence ratio amounted to 1.01 ± 0.019.

For the sequence GATGTTTTAC, the switch fluorescence ratio was found to be 0.998 ± 0.025. In the case of CGAAGGGGGA it was 0.995 ± 0.021; in that of TGTGGTTAGC, 1.01 ± 0.064; in that of TTTTGTTGGG, 0.991 ± 0.03. In the case of TTGTGTTTGT it was 1 ± 0.03. In the case of TATTGAGGGA it was 1.017 ± 0.0031. As for GGGAAACGAG, the switch fluorescence ratio worked out at 1.04 ± 0.019. In the case of GGTCTGGCTT it was 0.988 ± 0.052. In the case of CCGGTCTTGA it was 1.01 ± 0.039. In the case of GTTTTGCTGT it was 0.986 ± 0.046. As to AGGAGAGTCA, the switch fluorescence ratio was 0.9825 ± 0.0036. In the case of GCTGTCCGGA it was 1.048 ± 0.0054; in that of GGTTTTGCCA, 0.995 ± 0.034; in that of GGGCTGGGGC, 0.997 ± 0.11. In the case of AGGTTGGAGC it was 1 ± 0.021. In the case of ATAAAAGGAT, the switch fluorescence ratio came to 0.973 ± 0.014. In the case of AAAATCGGGT it was 1.03 ± 0.025. In the case of GTCATAGTTA it was 0.983 ± 0.017. On to ATCGGAGGTG, for which the switch fluorescence ratio is 1.02 ± 0.062. Regarding GGATTATTTT, the switch fluorescence ratio came out at 1 ± 0.012. For the sequence GGCTTGTGTA, the switch fluorescence ratio amounted to 0.965 ± 0.015. In the case of TTTCAGTCGC it was 0.9995 ± 0.0047. In the case of AATGGGAAGG it was 0.971 ± 0.028; in that of GATTGTGCCG, 1.03 ± 0.061. In the case of TTATAAGAGG it was 0.979 ± 0.0047; in that of GGCTGTTGGG, 0.978 ± 0.012; in that of TAGGGGGTCA, 1 ± 0.022. Consider AGTTCGGATG, for which the switch fluorescence ratio came to 1 ± 0.057. As to TTCGTTGAAT, the switch fluorescence ratio came out at 0.97 ± 0.024. As for CACGGTTGGG, the switch fluorescence ratio amounted to 0.976 ± 0.034. With CGGGCGGACA, the switch fluorescence ratio is 0.974 ± 0.04.

ATACAAGTAT: the switch fluorescence ratio turned out to be 0.995 ± 0.025. In the case of AGAGTCGTCA it was 0.965 ± 0.0068. For the sequence ATGACTTCGG, the switch fluorescence ratio stood at 0.99 ± 0.028. In the case of TGTAGGGGCT it was 0.982 ± 0.026; in that of AGTTTGTTTT, 0.966 ± 0.049. In the case of TTGTTTGTAG it was 1.03 ± 0.052; in that of TTGTTAAGGC, 1.02 ± 0.037.

As to CGGCTGGTGG, the switch fluorescence ratio was determined as 1.02 ± 0.016. In the case of GAAGGCACTA it was 1.03 ± 0.045; in that of GGTGTTTGGG, 1 ± 0.039. In the case of GGTATTGAGG it was 0.9871 ± 0.003; in that of TAAGCGGGGA, 1.027 ± 0.0054; in that of ATCATTTTTT, 0.9877 ± 0.0061. In the case of ATTGGTAGTG it was 0.997 ± 0.034; in that of TTAGAGGTCT, 0.978 ± 0.011; in that of GTTTTTGAGG, 0.977 ± 0.028. On to GGAGATTGGG, for which the switch fluorescence ratio stood at 0.9697 ± 0.0033. Turning to AGAAAGAGGG, the switch fluorescence ratio was 1.002 ± 0.0013.

On to GCGCGCGATT, for which the switch fluorescence ratio worked out at 0.997 ± 0.025. As to TTAAGCTGTT, the switch fluorescence ratio is 1.01 ± 0.023. In the case of AATTGCCAGT it was 1.01 ± 0.018. In the case of AGGGCGGTCA it was 0.996 ± 0.025; in that of GGGGTAAAGA, 1.02 ± 0.036. In the case of GTTTCCAACT it was 1.01 ± 0.021; in that of CGTTTAGATA, 1 ± 0.042; in that of AGTGTAGCTT, 1.07 ± 0.19. Take TTGGGGGGCA: the switch fluorescence ratio amounted to 1.32 ± 0.65. As to AAAGCGTGTG, the switch fluorescence ratio was determined as 1.01 ± 0.043. In the case of TAAAAGGGTT it was 1 ± 0.031; in that of CGTGGGGATG, 1.001 ± 0.0031; in that of TTTGTAATTT, 1.01 ± 0.021. In the case of CGTGGCGGGA it was 0.923 ± 0.09.

These data come from the supplement of paper PMC10126150.
